This data set concerns the molecule itself. Briefly: thioflavin-T aggregation assay; 30 μM peptide in PBS with 20 μM Th-T, pH 7.2, 100 μl in black 96-well nonbinding plate, 37 °C, fluorescence (ex 440 nm, em 495 nm) every 15 min for 18 h; peptide alone.

This is an account of results in PMC9792896, “Lack of ApoE inhibits ADan amyloidosis in a mouse model of familial Danish dementia” (The Journal of Biological Chemistry, 2022).

B1: ADan amyloid peptide (peptide)
peptide: EASNCFAIRHFENKFAVETLICFNLFLNSQEKHY
notes: 34 aa amyloid peptide released by pro-protein convertases from the familial Danish dementia (FDD) mutant form of human BRI2 (ITM2B); The first 22 residues are as in wild-type BRI2; Reconstituted in hexafluoroisopropanol (1 mg/ml, 7 days), stock in dimethyl sulfoxide, diluted in PBS; also called Danish amyloid; source: synthetic peptide (ERI Amyloid Laboratory)
Take B1: the binding result is given as “binds”.
